Article PMC9405769, “The Crystal Structure of the Defense Conferring Rice Protein OsJAC1 Reveals a Carbohydrate Binding Site on the Dirigent-like Domain” (Biomolecules, 2022)

Experiments:
[1] = target: the molecule itself; assay: crystal structure; JRL-cf1: protein in 25 mM sodium phosphate pH 7.0, 10 mg/mL; reservoir 0.05 M MES pH 6.0, 28% (w/v) PEG 3350; sitting drop, 20 °C; non-reducing; space group P212121; two chains per asymmetric unit
[2] = target: the molecule itself; assay: crystal structure; JRL-cf2: protein in 25 mM sodium phosphate pH 7.0, 11 mg/mL; reservoir 0.2 M NH4I, 20% (w/v) PEG 3350; sitting drop, 20 °C; space group C2221; two chains per asymmetric unit
[3] = target: the molecule itself; assay: crystal structure; DIR-cf1: protein in 15 mM Tris-HCl pH 7.4, 1 mM DTT, 6.25 mg/mL; reservoir 0.2 M CaCl2, 20% (w/v) PEG 3350; sitting drop, 20 °C; space group P212121; three chains per asymmetric unit

B1: OsJAC1-JRL domain (His-tagged, crystal form 1) (domain or fragment, rice (Oryza sativa))
chain: QCPVTKIGPWGSSHEGTVQDITESPKRLESITLYHGWSVDSISFTYLDHAGEKHKAGPWGGPGGDPIMIEFGSSEFLKEVSGTFGPYEGSTVITSINFITNKQTYGPFGRQEGTPFSVPAQNNSSIVGFFGRSGKYINAVGVYVQPI
modifications: symmetric inter-subunit disulfide bond at Cys161 (Cys161-Cys161)
notes: JRL (jacalin-related lectin) domain of the monocot chimeric jacalin OsJAC1, rice (Oryza sativa); the model's termini are Gln160 and Pro305 of full-length OsJAC1 (residue range 160-306 used for superposition); also called JRL-cf1; OsJAC1-JRL (cf1); source: prepared as previously described in Huwa et al. (2021) [25]
[1]
  stoichiometry N: 2

B2: OsJAC1-JRL domain (Strep-tagged, crystal form 2) (domain or fragment, rice (Oryza sativa))
chain: B1 chain
modifications: symmetric inter-subunit disulfide bond at Cys161 (Cys161-Cys161)
notes: JRL (jacalin-related lectin) domain of the monocot chimeric jacalin OsJAC1, rice (Oryza sativa); residue range 160-306 of full-length OsJAC1 used for superposition; also called JRL-cf2; OsJAC1-JRL (cf2); source: prepared as previously described in Huwa et al. (2021) [25]
[2]
  stoichiometry N: 2

B3: OsJAC1-DIR domain (His-tag cleaved by thrombin) (domain or fragment, rice (Oryza sativa))
chain: SKLQITPCGMLVQGNQINFTKLYLHHTPAGPEQNQSAVTSNDKKTGLGCIVVNNWSVYDGIGSDAKLVAYAKGLHVFAGAWHNSFSLVFEDERLKGSTLQVMGLIVEEGDWAIVGGTGQFAMATGVILKKMQEQKQYGNIIELTIHGFCPLLKGS
notes: DIR (dirigent) domain, the N-terminal domain of the monocot chimeric jacalin OsJAC1, rice (Oryza sativa); traced residues include Lys6 (chain B), and the C-terminus of the model of chain A (cf1) is at Leu155; also called DIR-cf1; DIR-cf2; source: prepared as previously described in Huwa et al. (2021) [25]; His-tag removed with thrombin, no further purification
[3]
  stoichiometry N: 3
